The values below come from PMC5376975, “Structural studies of RFCC tf18 reveal a novel chromatin recruitment role for Dcc1”.

The series concerns the target T1, Dcc1 C-terminus WT (Saccharomyces cerevisiae, UniProt P25559 90-380).
T1 sequence: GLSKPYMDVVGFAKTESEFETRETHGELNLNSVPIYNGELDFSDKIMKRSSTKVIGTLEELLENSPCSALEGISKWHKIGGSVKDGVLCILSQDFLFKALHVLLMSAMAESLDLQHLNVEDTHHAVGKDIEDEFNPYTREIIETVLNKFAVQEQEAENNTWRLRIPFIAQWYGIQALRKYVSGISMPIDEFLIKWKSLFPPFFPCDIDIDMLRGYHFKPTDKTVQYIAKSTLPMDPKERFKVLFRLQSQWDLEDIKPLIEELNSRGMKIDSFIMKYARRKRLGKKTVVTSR
Kind of series: EMSA; 1 uM DNA; EMSA, 6% native gel in 0.5x TBE, 4 C, DNA 1 uM unless stated; binding buffer, salt and pH not stated (protein storage 10 mM Tris pH 7.5, 150 mM NaCl, 0.5 mM TCEP for the complex). The conditions noted are these: protein: recombinant, tags: expressed by the complex protocol.

B1: 22-mer dsDNA (dsDNA)
DNA 1: TCTCCACAGGAAACGGAGGGGT
DNA 2: ACCCCTCCGTTTCCTGTGGAGA
As to B1, the binding result (label: 5' 6-FAM on sense strand) was “binds”.

B2: 25-mer oligo d(T) (ssDNA)
DNA: TTTTTTTTTTTTTTTTTTTTTTTTT
B2: under “label: 5' 6-FAM”, the binding result is “binds”.
